Data: paper PMC5690283

Target: E-Syt2 C2B domain (within the E-syt2 C2AB construct, 343-646, C611S) (human)
Assay: single-molecule force spectroscopy (optical tweezers); the two C2 domains stand on one chain (C2AB); N-terminus held by biotin-streptavidin on a bilayer-coated silica bead or a streptavidin-coated bead, C-terminus on a DNA handle to a polystyrene bead; pulled at 10 nm/s or held at constant trap separation; 25 mM HEPES pH 7.4, 200 mM NaCl, 100 uM Ca2+, room temperature (~23 C)

Substance “E-Syt2 C2A domain (within the E-syt2 C2AB construct, 343-646, C611S) (domain or fragment)” has a force at which the two domains dissociate of 8 to 13 pN and a force of reversible dissociation and re-association of 11 pN.
